The values below come from the DeepSol protein solubility set.

A short description of the data set: soluble on expression in E. coli; label from the status in PepcDB or PDB records.
“MIEIIETGPFNTVQDLGRPGYRDVGVSAGGAMDPLAVKIGNILLGNFDDAAVIEVQTFPFKMRFEARAAFAVTGADGQMLLDGRELLPWCTHVAAEGQVLELKQPPQFARAYISLTGGVDVPVLMGSRSTALRGGFGGNAGRPLARGDRLKIGTVADALPLPASGIAVIEPATALRDVFAPPIEGILQIRAIPAGEHGLFASDGEAFWSQTWRISSRSDRTGYRLSGEPIKPTETIEMRSHGVVPGVVQVPPGGEPIIQMSDANTAGGYPKVAGVIECDLWRLGQARIGSRLQFVRSTHAEARVVEQAVASYLEDIRQTSHMVKRALKAMAAAALEHHHHHH”: the “soluble on expression in E. coli” value is given as “not soluble”.
Then “MSLGDSNSSTPLPDTSYACQANVMTQSNQLRTYQIMVESFVDGDTSIGHGTGYGTSHHNGDLQGVIDSLDYIQDLGMNAIWLTPVFESEAIAGQDHWADRLDATGYFATDYFKIDPKFGDLATAKTLVEEAHKRGLYVFFDGVFGHHKNGLIKPSPSGLLPSGSSNPVDYPASLDFYKEVATYWIKELKIDGWRLDQAYQVPTDAWTQLRKAVDEASQSVTYTNSKGDQVNPLGYMVAEIWKGESEIANEAYGSNSDPALCSAFDFPMRYRIVETLAVNESGVGGRGVDWLDNGYSTHNQYPTHAQPNLMIGNHDLVRFGDLLQRGNLADVNDAEYWLRHKAAFAFQAAYTGPITLYYGDEIGDQVDGFAAKEDNNTCAIQGLCDDHVARSSAKIEGVTATLDANQADLKAYVTSLMTMRDTHPALYQGSRTNLVASNGSYVDLKQSGSDKVLFALNTLESARTVILAQESVGTGELVDLLTNEKIAPSNGQYQLPMSPLQGRFFAVTEGHHHHHH”, with “soluble”; and “MGSDKIHHHHHHMENTIYLSSAYLAPVEYYTKLFACEKAYVEQYDNYVKQTYRNRCVIAAADGPLALTIPTEKSGTPKCLMKDVRISDHGNWRHIHWNALVAAYRNSPFFEYYADDFHVFYEKKYAFLWDYNQEICSLVCDLIDIHPHMEGTTEYCMEFVPGEVDFRETIHPKRDWREADADFCPKPYYQVFDAKYGFLPNLSIADLLFNMGPESLIVLRDSVKGINHKE”, with “not soluble”.
Then “MGSDKIHHHHHHYPEPVLNPESCTSIMVGKKASADGSVMTSHTCDSNYRTWMDIVPSASYDHDTTTTVYTGRMHTEYAEGTRGMIAKGTLPEARSTYQFLNTAYPCLNEKQLGIGETTITGRKALVNKKGMFMIEELQRIALQRCTTARDAIRLMGELIEKYGYGDWGECLTIADPKEVWHFEVFGEGPDKIGGVWAAIRIPDDHVGVSANIPRISKVDPSDKENCMASANVFEVAKRMGFWDGKKPFRFWEAYGGGNYSGELKSFSIREFFILNKLAPSLHLSYDAEELPISVKPEKPVDVTDVMALLSETYEGTEYDMTKNLKVAVKKKDSNETDTIISPVANPWMTTDMVNMLNGLRPDAVKRYRLVAVPQCSYSTVIQLRDWLPDAVGGVVWMAYDNPGQSPRIPIFCGTKDLPACFKVCGQHRYREDAAVWAFRRANKLATVRWGATKDRMKASIAHFTEKGQTELPFVESRYKEILTQQGEEAAKEYLTGYTADFAGATMLRWREMGDSFWTQFERGF”, with “not soluble”; and “PYPIDLVSVVIPVYNEEASLPELLRRTEAACLELGRAFEIVLVDDGSRDRSAELLQAAAERDGSAVVAVILNRNYGQHAAILAGFEQSRGDLVITLDADLQNPPEEIPRLVERAAQGYDVVGSIRAERQDSAWRRWPSRLVNLAVQRSTGVAMHDYGCMLRAYRRSIVEAMLACRERSTFIPILANGFARHTCEIRVAHAERAHGESKYSAMRLLNLMFDLVTCMTTTPLR”, with “not soluble”.
As to “MGSDKIHHHHHHMTKIGEKRYIFYLTNTKIDQSIMLSELKTFIAVSQYGTFSGAGARIGLTQSAVSAQMQRLEEELGFALFDRTGRSATLNDAGRETLALAEEMMTLYARLSERGAVAAESGMLRVGAIASAQVSFLADALARFRDDRPGWRIRVVPGVSLGLLGQVDSGELDLAVIIKPPFALPSELEWRTLVTEPFVLLVPKALVRGKGNARSWRELLRSEPFIRYDRTSFGGRLVDRFLRRSRLNVHDVIELDELQGIVQLVARGIGVALIPDSAGLGKWPAGVAALELGEATFQREIGLVQRPRHSRQAVAGVLADCIGTAAGV”, the “soluble on expression in E. coli” value is listed as “not soluble”.
As for “QNLPQGDLMQHGMMAVKAATLSDAEVRQVADQACAESDQQNRIAPANSKYGQRLDKIAKALGDQIDGVPVNYKVYLTEEVNAWAMANGCIRVYSGLMELMSDNEIEGVLGHEMGHVALGHTRKAAQTAYAAAAVRGAAGASKSGALAALSGSQLGELTESLVNAQFSQSQESDADDFSYELLKKRGVNTQGLVTAFEKLAKLGGGDSSMFDSHPGSQARADHIRQRIAADR”, the entry is “not soluble”; as for “MKLAVYSTKQYDKKYLQQVNESFGFELEFFDFLLTEKTAKTANGCEAVCIFVNDDGSRPVLEELKKHGVKYIALRCAGFNNVDLDAAKELGLKVVRVPAYDPEAVAEHAIGMMMTLNRRIHRAYQRTRDANFSLEGLTGFTMYGKTAGVIGTGKIGVAMLRILKGFGMRLLAFDPYPSAAALELGVEYVDLPTLFSESDVISLHCPLTPENYHLLNEAAFEQMKNGVMIVNTSRGALIDSQAAIEALKNQKIGSLGMDVYENERDLFFEDKSNDVIQDDVFRRLSACHNVLFTGHQAFLTAEALTSISQTTLQNLSNLEKGETCPNELV”, “soluble”; as for “MRNNQPVTQKEVTYPPHFNLLSTTTLSSHIKYASKEFCDVAGYTLDELVNQPHNMVRHPDMPPEAFKDMWEHLKAGKSWMGMVKNRCKNGDHYWVDAFASPIKENGK”, “not soluble”.
As for “LLERVSAEAVTTTLHQVTRERMEDRCRGEYERSFLREFHKWIERVVGWLGKVFLQDGPARPASPEAGNTLRRWRCHVQRFFYRIYASLRIEELFSIVRDFPDSRPAIEDLKYCLERTDQRQQLLVSLKAALETRLLHPGVNTCDIITLYISAIKALRVLDPSMVILEVACEPIRRYLRTREDTVRQIVAGLTGDSDGTGDLAVELSKTDPASLETGQDSEDDSGEPEDWVPDPVDADPGKSSSKRRSSDIISLLVSIYGSKDLFINEYRSLLADRLLHQFSFSPEREIRNVELLKLRFGEAPMHFCEVMLKDMADSRRINANIREEDEKRPAEEQPPFGVYAVILSSEFWPPFKDEKLEVPEDIRAALEAYCKKYEQLKAMRTLSWKHTLGLVTMDVELADRTLSVAVTPVQAVILLYFQDQASWTLEELSKAVKMPVALLRRRMSVWLQQGVLREEPPGTFSVIEEERPQDRDNMVLIDSDDESDSGMASQADQKEEELLLFWTYIQAMLTNLESLSLDRIYNMLRMFVVTGPALAEIDLQELQGYLQKKVRDQQLVYSAGVYRLPKNCS”, the entry is “soluble”; as for “MGGSHHHHHHGMASTQLFLWEYGDLHLFGPNQRPAPCYDPCEAVLVESIPEGLDFPNASTGNPSTSQAWLGLLAGAHSSLDIASFYWTLTNNDTHTQEPSAQQGEEVLRQLQTLAPKGVNVRIAVSKPSGPQPQADLQALLQSGAQVRMVDMQKLTHGVLHTKFWVVDQTHFYLGSANMDWRSLTQVKELGVVMYNCSCLARDLTKIFEAYWFLGQAGSSIPSTWPRFYDTRYNQETPMEICLNGTPALAYLASAPPPLCPSGRTPDLKALLNVVDNARSFIYVAVMNYLPTLEFSHPHRFWPAIDDGLRRATYERGVKVRLLISCWGHSEPSMRAFLLSLAALRDNHTHSDIQVKLFVVPADEAQARIPYARVNHNKYMVTERATYIGTSNWSGNYFTETAGTSLLVTQNGRGGLRSQLEAIFLRDWDSPYIHDLDTSADSVGNACRLL”, “not soluble”; as for “MSLVINAPFKVIASKVTAEVLKSVNSKLGSYSTNYATSSEARATNVAVATRSIDGKVVMPGETFSFNEVVGERTRARGYKEAGVIVNQKLESGFGGGVCQVSSTLYNALLRSNIKMTERVHHTFPSSYVPTGLDATVDWGNIDLKFKNTFKYPIYIQGYTGGREVGFNIYSNSELARTRCEITSEVYKKIEPRTEYINDSNLPAGAMEVVKSGHTGYRVKSYRSIYKDGKFVAKELIANDYYVPVNGVVKRGTREGHHHHHH”, “soluble”.
As for “MQDTDFFSWRRTMLLRFQRMEAAEEAYHEIELQAQQLEYDYYSLCVRHPVPFTRPKVAFYTNYPESWVSYYQAKNFLAIDPVLNPENFSQGHLMWNDDLFSEAQPLWEAAHAHGLRRGVTQYLMLPNRALGFLSFSRCSTREIPILSDELQLKMQLLVRESLMALMRLNDEIVMTPEMNFSKREKEILKWTAEGKTSAEIAMILSITG”, the “soluble on expression in E. coli” value is “not soluble”.
